Assay results from patent US20230407373A1 (priority 2020, published 2023).
Read-outs that look alike come from different tables or passages of the source.

B1: RBM14: host protein, UniProt Q96PK6 (protein, UniProt Q96PK6 1-669, looked up)
RNA-binding protein 14: MKIFVGNVDGADTTPEELAALFAPYGTVMSCAVMKQFAFVHMRENAGALRAIEALHGHELRPGRALVVEMSRPRPLNTWKIFVGNVSAACTSQELRSLFERRGRVIECDVVKDYAFVHMEKEADAKAAIAQLNGKEVKGKRINVELSTKGQKKGPGLAVQSGDKTKKPGAGDTAFPGTGGFSATFDYQQAFGNSTGGFDGQARQPTPPFFGRDRSPLRRSPPRASYVAPLTAQPATYRAQPSVSLGAAYRAQPSASLGVGYRTQPMTAQAASYRAQPSVSLGAPYRGQLASPSSQSAAASSLGPYGGAQPSASALSSYGGQAAAASSLNSYGAQGSSLASYGNQPSSYGAQAASSYGVRAAASSYNTQGAASSLGSYGAQAASYGAQSAASSLAYGAQAASYNAQPSASYNAQSAPYAAQQAASYSSQPAAYVAQPATAAAYASQPAAYAAQATTPMAGSYGAQPVVQTQLNSYGAQASMGLSGSYGAQSAAAATGSYGAAAAYGAQPSATLAAPYRTQSSASLAASYAAQQHPQAAASYRGQPGNAYDGAGQPSAAYLSMSQGAVANANSTPPPYERTRLSPPRASYDDPYKKAVAMSKRYGSDRRLAELSDYRRLSESQLSFRRSPTKSSLDYRRLPDAHSDYARYSGSYNDYLRAAQMHSGYQRRM
B2: CNBP: host protein, UniProt P62633 (protein, UniProt P62633 2-177, looked up)
CCHC-type zinc finger nucleic …: SSNECFKCGRSGHWARECPTGGGRGRGMRSRGRGGFTSDRGFQFVSSSLPDICYRCGESGHLAKDCDLQEDACYNCGRGGHIAKDCKEPKREREQCCYNCGKPGHLARDCDHADEQKCYSCGEFGHIQKDCTKVKCYRCGETGHVAINCSKTSEVNCYRCGESGHLARECTIEATA
B3: EWSR1: host protein, UniProt Q01644 (protein, UniProt Q01844 1-656, looked up)
RNA-binding protein EWS: MASTDYSTYSQAAAQQGYSAYTAQPTQGYAQTTQAYGQQSYGTYGQPTDVSYTQAQTTATYGQTAYATSYGQPPTGYTTPTAPQAYSQPVQGYGTGAYDTTTATVTTTQASYAAQSAYGTQPAYPAYGQQPAATAPTRPQDGNKPTETSQPQSSTGGYNQPSLGYGQSNYSYPQVPGSYPMQPVTAPPSYPPTSYSSTQPTSYDQSSYSQQNTYGQPSSYGQQSSYGQQSSYGQQPPTSYPPQTGSYSQAPSQYSQQSSSYGQQSSFRQDHPSSMGVYGQESGGFSGPGENRSMSGPDNRGRGRGGFDRGGMSRGGRGGGRGGMGSAGERGGFNKPGGPMDEGPDLDLGPPVDPDEDSDNSAIYVQGLNDSVTLDDLADFFKQCGVVKMNKRTGQPMIHIYLDKETGKPKGDATVSYEDPPTAKAAVEWFDGKDFQGSKLKVSLARKKPPMNSMRGGLPPREGRGMPPPLRGGPGGPGGPGGPMGRMGGRGGDRGGFPPRGPRGSRGNPSGGGNVQHRAGDWQCPNPGCGNQNFAWRTECNQCKAPKPEGFLPPPFPPPGGDRGRGGPGGMRGGRGGLMDRGGPGGMFRGGRGGDRGGFRGGRGMDRGGFGGGRRGGPGGPPGPLMEQMGGRRGGRGGPGKMDKGEHRQERRDRPY
B4: PSPC1: host protein, UniProt Q8WXF1 (protein, UniProt Q8WXF1 1-523, looked up)
Paraspeckle component 1: MMLRGNLKQVRIEKNPARLRALESAVGESEPAAAAAMALALAGEPAPPAPAPPEDHPDEEMGFTIDIKSFLKPGEKTYTQRCRLFVGNLPTDITEEDFKRLFERYGEPSEVFINRDRGFGFIRLESRTLAEIAKAELDGTILKSRPLRIRFATHGAALTVKNLSPVVSNELLEQAFSQFGPVEKAVVVVDDRGRATGKGFVEFAAKPPARKALERCGDGAFLLTTTPRPVIVEPMEQFDDEDGLPEKLMQKTQQYHKEREQPPRFAQPGTFEFEYASRWKALDEMEKQQREQVDRNIREAKEKLEAEMEAARHEHQLMLMRQDLMRRQEELRRLEELRNQELQKRKQIQLRHEEEHRRREEEMIRHREQEELRRQQEGFKPNYMENREQEMRMGDMGPRGAINMGDAFSPAPAGNQGPPPMMGMNMNNRATIPGPPMGPGPAMGPEGAANMGTPMMPDNGAVHNDRFPQGPPSQMGSPMGSRTGSETPQAPMSGVGPVSGGPGGFGRGSQGGNFEGPNKRRRY

Assays:
Type in all cases: binding
SARS-CoV-2 gRNA = details: […]; LC-MS/MS; Probe I sample (first 199 lines of Table 2)
HCoV-OC43 gRNA and sgRNA = details: for target (unweighted spectral count, OC43 Probe II capture) / target (spectral count) / background (spectral count): 36 hpi; for target (unweighted spectral count, OC43 Probe II capture): type n_36_v, FDR<10%; for target (unweighted spectral count, OC43 Probe II capture) / target (unweighted spectral count): tested against no-probe control; for target (unweighted spectral count): OC43 Probe II, infected cells; for target (unweighted spectral count, OC43 Probe II) / background (unweighted spectral count, no-probe control): type n_48_v, 48 hpi; for target (unweighted spectral count, OC43 Probe II): OC43 Probe II capture on infected cells; for background (unweighted spectral count, no-probe control): no-probe control on infected cells; for target (spectral count) / background (spectral count): type s_36_m, Probe II; for target (spectral count): HCoV-OC43-infected HCT-8 cells; for background (spectral count): uninfected-probe control
gRNA of HCoV-OC43 = details: for target (spectral count) / background (spectral count): type g_36_m, 36 hpi, Probe I; for target (spectral count): HCoV-OC43-infected HCT-8 cells; for background (spectral count): uninfected-probe control; for target (spectral count, OC43 Probe I RNP capture) / background (spectral count, no-probe control): type n_48_v: 48 hours post-infection; for target (spectral count, OC43 Probe I RNP capture): infected cells, unweighted spectral count; for background (spectral count, no-probe control): no-probe control on infected cells
[1] = test system: SARS-CoV-2 gRNA and sgRNAs; details: for target (unweighted spectral count in RNP capture): Probe II capture, LC-MS/MS LFQ; for background (unweighted spectral count in control): no-probe control pull-down, used as background for Probe II

Molecule | target (unweighted spectral count of the protein in the RNP capture) (SARS-CoV-2 gRNA) | target (unweighted spectral count, OC43 Probe II capture) (HCoV-OC43 gRNA and sgRNA) | target (unweighted spectral count) (HCoV-OC43 gRNA and sgRNA; 12 hpi (type n_12_v)) | target (unweighted spectral count, OC43 Probe II) (HCoV-OC43 gRNA and sgRNA) | background (unweighted spectral count, no-probe control) (HCoV-OC43 gRNA and sgRNA) | target (spectral count) (gRNA of HCoV-OC43) | background (spectral count) (gRNA of HCoV-OC43) | target (spectral count, OC43 Probe I RNP capture) (gRNA of HCoV-OC43) | background (spectral count, no-probe control) (gRNA of HCoV-OC43) | target (unweighted spectral count in RNP capture) [1] | background (unweighted spectral count in control) [1] | target (unweighted spectral count) (HCoV-OC43 gRNA and sgRNA; 24 hpi (type n_24_v)) | target (spectral count) (HCoV-OC43 gRNA and sgRNA) | background (spectral count) (HCoV-OC43 gRNA and sgRNA)
B1 | 9 | 14 | 5 | 17 | 2 | 20 | 2 | 19 | 2 | 10 | 1 | – | – | –
B2 | 74 | 14 | 5 | 19 | 2 | 15 | 2 | 22 | 2 | 44 | 1 | 12 | – | –
B3 | 9 | 9 | – | 10 | 1 | – | – | 8 | 1 | 7 | 1 | 6 | 9 | 1
B4 | 7 | 14 | 4 | 14 | 1 | 12 | 1 | 20 | 1 | 10 | 1 | 8 | 14 | 1
